Results on 28 sequences are retold here after the supplement of paper PMC9170038.

For this data set, the system named is MS2 coat protein. Briefly: apparent KD of MS2 coat protein; higher = weaker reporter binding. Conditions: Eterna round: R107. The essentials: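 On-chip transcription from Illumina sequencing clusters produced the designed RNA switches. These were titrated with SNAP-549-labelled MS2 coat protein (twofold steps, 0.7 or 1.5 nM to 3 µM) in 100 mM Tris-HCl pH 7.5, 80 mM KCl, 4 mM MgCl2, with or without constant ligand. The apparent KD given is the per-design median of normalised cluster binding-curve fits.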

Setting [1] is: input ligand: theophylline 20 uM.
Where [2] appears, read: input ligand: theophylline 2 mM.
Where [3] appears, read: input ligand: tryptophan 2.4 mM.

“AACAACUAGUCGGCCGCCACUCAUAAUACAUGAGGAUCACCCAUGUAUACUUGGUUUUUAUAUUUGAGGACCGGGACAGUUGCAU [JR_Nu_ExcTryptoB_Sub026]”: the “apparent KD of MS2 coat protein” value by setting is: (input ligand: arginine 13.2 mM) 12.5 nM; under setting [1], 14.7 nM; under setting [2], 10.7 nM.
Turning to “UGGAGUAGGGUAAAUAGGAUAAGUACAGAAGGAGCGCGAAUAAACGCAGGUAGGUCGCUGGAACACAUGAGGAUCACCCAUGUUG [Same State Arginine A GF 24]”, the “apparent KD of MS2 coat protein” value reads like this: (input ligand: arginine 13.2 mM) 20.9 nM; (input ligand: none) 25.4 nM; under setting [1], 26.2 nM; under setting [2], 17.8 nM; under setting [3], 25.4 nM.
For “AGCUCGCAAUCCUCAGCGUCAAAGACGCGUCGAGGACCGGUACGGCCGCCACUCGACAAGAGGAUCACCCUUGUCUAAGCGAGCA [TrypAX 5 #SwitchBubble #AlternativeMS2 #MS2Late #CuTurnoff]”, the “apparent KD of MS2 coat protein” value is, setting by setting: (input ligand: arginine 13.2 mM) 78.5 nM; under setting [1], 355 nM; under setting [2], 588 nM; under setting [3], 114 nM.
As to “CGGGUUCGGGCGGCCGCCACUUUGAUUGGGUGUGACAUGAGGAUCACCCAUGUUGUGGGUGAUCGGAGGACCGGGUUUGGGCUUG [Fidorka]”, the “apparent KD of MS2 coat protein” value turned out to be 85.2 nM (input ligand: arginine 13.2 mM); 65.6 nM (input ligand: none); 471 nM under setting [1]; 744 nM under setting [2]; 240 nM under setting [3].
As for “UGAGAGACCAGAAGGAGCGACAUGAGGAUCACCCAUGUCUCCCGUUAUGGGAGUUCUUUAGGUCAGGUAGGUCGCUGGUCUCUCA [#1 Exclusion - Arginine B Attempt #8 (Inspired by Omei)]”, the “apparent KD of MS2 coat protein” value is 59.9 nM (input ligand: arginine 13.2 mM); 132 nM (input ligand: none); 120 nM under setting [1]; 149 nM under setting [2]; 87.8 nM under setting [3].
On to “GUAUGAGUUGACUGUGAGACUGGCGUGGAAGGAGCGCACGGAGGUGCAGGUAGGUCGCCACAUGAGGAUCACCCAUGUCAGGCCG [Ceedtila]”, for which the “apparent KD of MS2 coat protein” value is, setting by setting: (input ligand: arginine 13.2 mM) 32.4 nM; (input ligand: none) 38 nM; under setting [1], 56.4 nM; under setting [2], 111 nM; under setting [3], 53 nM.
“ACACAUGAGGAUCACCCAUGUUGCAUAGAUACCAGAUAACGUGAGAUCCCUUGGCAGCUAACUGCAUGAACUUGACAUGCAUCAU [Same State Theophylline A 2]”: the “apparent KD of MS2 coat protein” value is, setting by setting: (input ligand: arginine 13.2 mM) 44.2 nM; under setting [1], 88.7 nM; under setting [3], 53.5 nM.
For the sequence “CAUUAAUUACGAAGGAGCGUCGAGAAUGGGUAAACAUGAGGAUCACCCAUGUGAAGGGAACGGCAGGUAGGUCGCGUAAUUAAUG [#22 Same State - Arginine B]”, the “apparent KD of MS2 coat protein” value is, setting by setting: (input ligand: arginine 13.2 mM) 105 nM; (input ligand: none) 97.2 nM; under setting [1], 116 nM; under setting [2], 75.1 nM; under setting [3], 60.5 nM.
Turning to “UUUACCGACACAGAUCACUAAAACCUUGAUACCAGUCCCAGUGGCGACCCUUGGCAGCAAUAUACAUGAGGAUCACCCAUGUGCA [theeternabot_exclusion_MS2_Theo_A_1]”, the “apparent KD of MS2 coat protein” value came out at 13.7 nM (input ligand: arginine 13.2 mM) and 13.8 nM under setting [3].
On to “UGGGUAGCAUAGAUUGAUAGCUACACUGAAGGAGCGAGGAUAACCUCAGGUAGGUCGCAGACAUGAGGAUCACCCAUGUAGAUGG [Same State Arginine A GF17]”, for which the “apparent KD of MS2 coat protein” value reads like this: (input ligand: arginine 13.2 mM) 77.7 nM; (input ligand: none) 254 nM; under setting [1], 174 nM; under setting [2], 252 nM; under setting [3], 209 nM.
For the sequence “GGAGCUACGUCGGCCGCCACUAGCGGUAAUUACGUGUACAUGAGGAUCACCCAUGUAAUAUGGACUAGGACCGGGACGUAGCUCC [Salmon]”, the “apparent KD of MS2 coat protein” value was 10.6 nM (input ligand: arginine 13.2 mM); 13.3 nM (input ligand: none); 21.8 nM under setting [1]; 13.7 nM under setting [2]; 12.2 nM under setting [3].
With “UGUUUGGUGCGCGAGUGUUGGAUAAUUGAUACCAGUGUAGAUGUACGCCCUUGGCAGCGAAUCCGAACAUGAGGAUCACCCAUGU [5.aA]”, the “apparent KD of MS2 coat protein” value was found to be 36.7 nM (input ligand: arginine 13.2 mM), 45.6 nM under setting [1] and 30.2 nM under setting [3].
Regarding “AUUGUCGCGUCGGCCGCCACUGUCAUGGUUUUCGUGGAACACAUGAGGAUCACCCAUGUAAUUGACAGGACCGGGACGUGGCGGC [Vevea]”, the “apparent KD of MS2 coat protein” value was 10.2 nM (input ligand: arginine 13.2 mM); 8.64 nM (input ligand: none); 11.1 nM under setting [1]; 10.6 nM under setting [2]; 12.2 nM under setting [3].
Take “AGCCCGUGAGCGGCCGCCACUGGAGGCUUUGCGCGACAUGAGGAUCACCCAUGUGUGCCCGGCGUUAGGACCGGGUUCACGUGGU [#1 Same State - Tryptophan B Attempt #19 (HarryS)]”: the “apparent KD of MS2 coat protein” value (input ligand: arginine 13.2 mM) is 59.4 nM; the “apparent KD of MS2 coat protein” value (input ligand: none) worked out at 304 nM; the “apparent KD of MS2 coat protein” value under setting [1] is 226 nM; the “apparent KD of MS2 coat protein” value under setting [2] was found to be 838 nM; the “apparent KD of MS2 coat protein” value under setting [3] amounted to 124 nM.
On the same counts, the results for “ACGCCCAGGUAGGCUUAGUGGGAUAUGGAAGGAGCGCCGAUGCAGGCAGGUAGGUCGCCAUAGAACAUGAGGAUCACCCAUGUAA [#05 Same State - Arginine A]” are 31.3 nM, 32.8 nM, 37.9 nM, 33.1 nM and 27.1 nM.
In the case of “CAGAACAUGAGGAUCACCCAUGUCAGGGAUACCAGCUCAGACAUGGGCCCUUGGCAGCUCUGUGGCUGACGAAAGUCAGCAUCUG [#17 SameState-TheophyllineA]”, the “apparent KD of MS2 coat protein” value worked out at 17.5 nM (input ligand: arginine 13.2 mM), 109 nM under setting [1] and 19.5 nM under setting [3].
In the case of “GACAUGAGGAUCACCCAUGUUUGCUAUGAAGGAGCGUCGGAAAUGACAGGUAGGUCGCAUAGUAGGCCUUGUAUUUUGUGUGUUU [EAA #8]”, the “apparent KD of MS2 coat protein” value by setting is: (input ligand: arginine 13.2 mM) 11.4 nM; (input ligand: none) 10.1 nM; under setting [1], 14.4 nM; under setting [2], 10.8 nM; under setting [3], 10.5 nM.
With “GACGCAUGAGUUGGAACAGCUCAUGGGUCGCGAGGACCGGUACGGCCGCCACUCGGCUGUACAUGAGGAUCACCCAUGUCAGGGU [#1 Same State - Tryptophan A Attempt #30 (HarryS)]”, the “apparent KD of MS2 coat protein” value (input ligand: arginine 13.2 mM) was 72.7 nM, the “apparent KD of MS2 coat protein” value under setting [1] stood at 329 nM and the “apparent KD of MS2 coat protein” value under setting [2] came to 942 nM.
As for “GACAUGAGGAUCACCCAUGUGUAACCAGAAGGAGCGUGCGAAAGCACAGGUAGGUCGCUGGUGGGUUUAGGUUUAGUAGGUGUUC [SSAA NP+V+V2 #3]”, the “apparent KD of MS2 coat protein” value is, setting by setting: (input ligand: arginine 13.2 mM) 87.6 nM; (input ligand: none) 69.2 nM; under setting [1], 100 nM; under setting [2], 139 nM; under setting [3], 56.4 nM.
Consider “UGUUUGGUGCGCGAGUGUUGGAUAAAUGAUACCAGUGUAGAUGUACGCCCUUGGCAGCGUAUCCGAACAUGAGGAUCACCCAUGU [5.aB]”, for which the “apparent KD of MS2 coat protein” value (input ligand: arginine 13.2 mM) turned out to be 26.7 nM, the “apparent KD of MS2 coat protein” value under setting [1] came out at 44.9 nM and the “apparent KD of MS2 coat protein” value under setting [3] turned out to be 36.3 nM.
Turning to “ACAUGAGGAUCACCCAUGUAUGAUGUUCCUCGAGGACCGGUACGGCCGCCACUCGAACGAGUGGCGCGCGAGCGCGCGCUCGCGC [aVa]”, the “apparent KD of MS2 coat protein” value runs as follows: (input ligand: arginine 13.2 mM) 14 nM; (input ligand: none) 15.6 nM; under setting [1], 27.2 nM; under setting [2], 17.3 nM; under setting [3], 15.2 nM.
Turning to “UAAUAAGUACCGGUCCUCAGAUCCUCAUGUCGAGGACCGGUACGGCCGCCACUCGAAACAUGAGGAUCACCCAUGUAAUAAUAAU [#06 Exclusion Tryptophan A]”, the “apparent KD of MS2 coat protein” value is 24.5 nM (input ligand: arginine 13.2 mM), 52.6 nM under setting [1] and 44.3 nM under setting [2].
For the sequence “CGAGUUCGCUGAUGGGCUACGUCAGGUGAUACCAGCCACUCCCGCGGCCCUUGGCAGCACAUGAGGAUCACCCAUGUAGAGCUUG [Esinve]”, the “apparent KD of MS2 coat protein” value worked out at 12.2 nM (input ligand: arginine 13.2 mM), 28.6 nM under setting [1] and 15 nM under setting [3].
As to “AGCGUGCAUCGGAAAACGAUGUACGCAAAUCGAGGACCGGUACGGCCGCCACUCGUCCUCAACAUGAGGAUCACCCAUGUAAUAA [Mat - Exclusion - Trytophan A - D10]”, the “apparent KD of MS2 coat protein” value turned out to be 22 nM (input ligand: arginine 13.2 mM), 24.8 nM under setting [1] and 24 nM under setting [2].
The corresponding values for “AGCCGCGUUCUUUCUUUCUUUCUAGCGGCACGAGGACCGGUACGGCCGCCACUCGCCCACAUGAGGAUCACCCAUGUAGUGGGUG [The One Ring #2]” are 18.5 nM, 27.7 nM and 23.9 nM.
As to “UAUUAUAACCGAAGGAGCGGGAAAGAUGAUUUUUAAUAUUAACAUGAGGAUCACCCAUGUACCCAGGUAGGUCGCGGAUAUUAUU [Default title]”, the “apparent KD of MS2 coat protein” value runs as follows: (input ligand: arginine 13.2 mM) 23.8 nM; (input ligand: none) 19.5 nM; under setting [1], 23.4 nM; under setting [2], 20.7 nM; under setting [3], 19 nM.
Regarding “CGUCAACAUGAGGAUCACCCAUGUUUCGAUACCAGUGACCCUCUCCACCCUUGGCAGCGAGCGCCCGCGCCUGAUAAAUCUUCUA [theeternabot_sameState_MS2_Theo_A_18]”, the “apparent KD of MS2 coat protein” value came to 13.5 nM (input ligand: arginine 13.2 mM), 16.4 nM under setting [1] and 14.1 nM under setting [3].
With “CGCAACCCACAUGAGGAUCACCCAUGUGAAGGAGCGCCGAAUAAGGCAGGUAGGUCGCGCAUGAAUAAAUCAUGUAGGAAGCGAA [XArg-A 6 V1&2]”, the “apparent KD of MS2 coat protein” value runs as follows: (input ligand: arginine 13.2 mM) 20.6 nM; (input ligand: none) 32.2 nM; under setting [1], 32.6 nM; under setting [2], 33.4 nM; under setting [3], 29.1 nM.
